Data set [1] has as its target T1, PotD (wild type), spermidine-binding protein (E. coli K12, UniProt P0AFK9 24-348).
T1 construct: expressed from the entire potABCD operon; Hexahistidine tag is called noncleavable; also called PoD wild-type; source: E. coli C41, expressed from the potABCD operon with the tag on PotD; purified (Ni-NTA, Superose 6 SEC); in lysate for the co-purification attempt; not shown: His6, C-terminal, kept
T1 sequence (looked up): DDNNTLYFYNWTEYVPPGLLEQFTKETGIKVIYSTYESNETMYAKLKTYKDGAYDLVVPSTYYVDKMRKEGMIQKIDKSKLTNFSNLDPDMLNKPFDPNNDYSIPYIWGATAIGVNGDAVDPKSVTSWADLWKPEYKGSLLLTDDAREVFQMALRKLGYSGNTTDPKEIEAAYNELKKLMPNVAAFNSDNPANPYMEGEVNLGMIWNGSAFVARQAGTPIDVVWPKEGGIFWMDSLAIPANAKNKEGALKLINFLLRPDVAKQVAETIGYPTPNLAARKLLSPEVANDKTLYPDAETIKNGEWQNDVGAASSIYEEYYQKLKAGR
Kind of data set: cryo-EM structure; PotD-PotABC E173Q complex formed with Spd, ATP and Mg2+, in LMNG; Spd-bound pretranslocation state (3.1 Å) and ATP-bound translocation intermediate state (3 Å; dataset 2 with 3 mM Fos-Choline-8). The note with it: both partners purified.

Data set [2] concerns the molecule itself. In words: cryo-EM structure; wild-type PotABC complex reconstituted into MSP1E3D1/asolectin nanodiscs, with ATP, Mg2+ and Spd; map at 3.5 Å.
Data set [3] deals with the molecule itself. In words: cryo-EM structure; PotD-PotABC E173Q complex formed with Spd, ATP and Mg2+, in LMNG; Spd-bound pretranslocation state (3.1 Å) and ATP-bound translocation intermediate state (3 Å; dataset 2 with 3 mM Fos-Choline-8).

Results on four molecules are retold here after article PMC11414716, “Structural insights into polyamine spermidine uptake by the ABC transporter PotD-PotABC” (Science Advances, 2024).

As a reminder, the stoichiometry N is a count of units in the complex or per binding partner.

Where a chain is given by its changes, count along the chain named. Numbers in names are those of the source.

B1: PotB (natural protein, E. coli K12, UniProt P0AFK4 1-275, looked up)
chain: MIVTIVGWLVLFVFLPNLMIIGTSFLTRDDASFVKMVFTLDNYTRLLDPLYFEVLLHSLNMALIATLACLVLGYPFAWFLAKLPHKVRPLLLFLLIVPFWTNSLIRIYGLKIFLSTKGYLNEFLLWLGVIDTPIRIMFTPSAVIIGLVYILLPFMVMPLYSSIEKLDKPLLEAARDLGASKLQTFIRIIIPLTMPGIIAGCLLVMLPAMGLFYVSDLMGGAKNLLIGNVIKVQFLNIRDWPFGAATSITLTIVMGLMLLVYWRASRLLNKKVELE
notes: PotB, transmembrane subunit, E. coli K12; the entire potABCD operon was cloned; Subunit of the PotABC complexes, written alone for the pairs within the solved complexes; source: E. coli C41, co-expressed and purified as part of the PotABC complex (Ni-NTA, SEC in LMNG; wild-type complex also in nanodiscs)
Take B1: the binding result in data set [1] is “binds”.

B2: PotC (natural protein, E. coli K12, UniProt P0AFK6 1-264, looked up)
chain: MIGRLLRGGFMTAIYAYLYIPIIILIVNSFNSSRFGINWQGFTTKWYSLLMNNDSLLQAAQHSLTMAVFSATFATLIGSLTAVALYRYRFRGKPFVSGMLFVVMMSPDIVMAISLLVLFMLLGIQLGFWSLLFSHITFCLPFVVVTVYSRLKGFDVRMLEAAKDLGASEFTILRKIILPLAMPAVAAGWVLSFTLSMDDVVVSSFVTGPSYEILPLKIYSMVKVGVSPEVNALATILLVLSLVMVIASQLIARDKTKGNTGDVK
notes: PotC, transmembrane subunit, E. coli K12; the entire potABCD operon was cloned; Subunit of the PotABC complexes, written alone for the pairs within the solved complexes; That the tag sits on PotC is surmised; source: E. coli C41, co-expressed and purified as part of the PotABC complex (Ni-NTA, SEC in LMNG; wild-type complex also in nanodiscs); not shown: His6 (inferred on PotC: C-terminal tag of …)
In the case of B2, the binding result in data set [1] is listed as “binds”.

B3: PotA (wild type) (natural protein, E. coli K12, UniProt P69874 1-378, looked up)
chain: MGQSKKLNKQPSSLSPLVQLAGIRKCFDGKEVIPQLDLTINNGEFLTLLGPSGCGKTTVLRLIAGLETVDSGRIMLDNEDITHVPAENRYVNTVFQSYALFPHMTVFENVAFGLRMQKTPAAEITPRVMEALRMVQLETFAQRKPHQLSGGQQQRVAIARAVVNKPRLLLLDESLSALDYKLRKQMQNELKALQRKLGITFVFVTHDQEEALTMSDRIVVMRDGRIEQDGTPREIYEEPKNLFVAGFIGEINMFNATVIERLDEQRVRANVEGRECNIYVNFAVEPGQKLHVLLRPEDLRVEEINDDNHAEGLIGYVRERNYKGMTLESVVELENGKMVMVSEFFNEDDPDFDHSLDQKMAINWVESWEVVLADEEHK
notes: PotA, cytosolic ATPase subunit, E. coli K12; the entire potABCD operon was cloned; Subunit of the wild-type PotABC complex solved in nanodiscs
In the case of B3, in data set [2], the binding result was “binds”.

B4: PotA E173Q (natural protein, E. coli K12, UniProt P69874 1-378, looked up)
chain: B3 chain with E173Q
notes: PotA, cytosolic ATPase subunit (NBD and regulatory domain), E. coli K12; the entire potABCD operon was cloned; Subunit of m1, written alone for the pairs within the solved complexes; source: E. coli C41, co-expressed and purified as part of the PotABC E173Q complex (Ni-NTA, SEC in LMNG)
Regarding B4, the “stoichiometry N” value in data set [3] was determined as 2.
